This is an account of results in paper doi:10.1101/2020.03.15.992883 (2020).

In this test the target is SARS-CoV-2 S receptor-binding domain (RBD) with C-terminal His6 tag (SARS-CoV-2, glycan N343). Kind of test: BLI. Background: BLI is a label-free optical method that tracks binding on a fibre tip over time.

B1: CR3022 IgG (human IgG1, kappa) (antibody, V domains shown)
VH: EVQLVQSGTEVKKPGESLKISCKGSGYGFITYWIGWVRQMPGKGLEWMGIIYPGDSETRYSPSFQGQVTISADKSINTAYLQWSSLKASDTAIYYCAGGSGISTPMDVWGQGTTVTVSS
VL: not shown
In general, Kd refers to the concentration at which binding is half-saturated. B1 showed a dissociation constant Kd of 12.4 nM.
